From PMC9482650, “Quantitative fragmentomics allow affinity mapping of interactomes” (Nature Communications, 2022)

Legend:
Assay in all cases: PDZ-AP-MS, biotinylated MBP-PDZ baits
Format in all cases: binding, human
[1] = system: HaCat cell extract preys; details: for Difference log2: bait TX1BP3 PDZ vs MBP, enrichment of prey; for Ratio TX1BP3/MBP: bait TX1BP3 PDZ, fold change of prey
Method: (§1) For PDZ-AP-MS experiments, PDZ domains were cloned as His6-AviTag-MBP-PDZ constructs. For co-expression with BirA, E. coli BL21(DE3) cells were co-transformed with His6-AviTag-MBP, or His6-AviTag-MBP-PDZ-coding and PET21a-BirA (Addgene #20857) plasmids. Simultaneously to IPTG induction, 50 µM biotin was added to the media. After cell harvesting, the lysis buffer was also supplemented with 50 µM biotin. Otherwise, expression and double affinity purification was identical as previously described in details.
(§2) For PBM-AP-MS experiments, 30 μl streptavidin resin was mixed with biotin or peptide at 50–60 μM concentration in 6–6.5 resin volume for 60 min to achieve resin saturation. For PDZ-AP-MS experiments, 30 μl streptavidin resin was mixed with biotinylated MBP or MBP-PDZ at 40-50 μM concentration in >1000× resin volume for 60 min to achieve resin saturation. After saturation, resins were washed a single time (ten resin volume, holdup buffer), and were depleted with biotin (1 mM biotin, 5–10 resin volume, 10 min). Finally, resins were washed two times. 0.5 ml 2 mg/ml cell lysate was added to the dry resin (1 mg total input) and were incubated at 4 °C for 2 h. Then, the beads were washed three times with 10 resin volume buffer containing: 50 mM TRIS pH 8.5, 150 mM NaCl, 1% TritonX-100, 10× complete EDTA-free protease inhibitor cocktail, 2 mM EDTA, 1 mM TCEP. Then, the beads were washed two times with ten resin volume buffer containing: 50 mM TRIS pH 8.5, 150 mM NaCl, 1 mM TCEP. Finally, captured protein was eluted from the resin in two steps and the eluted fractions were pooled. For each elution the beads were incubated for 30 min with three resin volume buffer containing: 20 mM TRIS pH8.5, 100 mM NaCl, 500 μM TCEP, 8 M Urea. Between each step, the beads were separated by mild centrifugation and the supernatant was removed by gentle pipetting.
(§3) The samples were precipitated with TCA 20% overnight at 4 °C and centrifuged at 14,000 rpm for 10 min at 4 °C. The protein pellets were washed twice with 1 mL cold acetone and air dried. The protein extracts were solubilized in urea 8 M, reduced with 5 mM TCEP for 30 min, and alkylated with 10 mM iodoacetamide for 30 min in the dark. Double digestion was performed at 37 °C with 500 ng endoproteinase Lys-C for 4 h, followed by fourfold dilution and an overnight digestion with 500 ng trypsin. Peptide mixtures were then desalted on C18 spin-column and dried on Speed-Vacuum.
(§4) Samples were analyzed using an Ultimate 3000 nano-RSLC (Thermo Scientific, San Jose California) coupled in line with a LTQ-Orbitrap ELITE mass spectrometer via a nano-electrospray ionization source (Thermo Scientific, San Jose California). Peptide mixtures were injected in 0.1% TFA on a C18 Acclaim PepMap100 trap-column (75 µm ID × 2 cm, 3 µm, 100 Å, Thermo Fisher Scientific) for 3 min at 5 µL/min with 2% ACN, 0.1% FA in H2O and then separated on a C18 Accucore nano-column (75 µm ID × 50 cm, 2.6 µm, 150 Å, Thermo Fisher Scientific) at 220 nl/min and 38 °C with a 90 min linear gradient from 5% to 30% buffer B (A: 0.1% FA in H2O/B: 99% ACN, 0.1% FA in H2O), regeneration at 5% B. The mass spectrometer was operated in positive ionization mode, in data-dependent mode with survey scans from m/z 350–1500 acquired in the Orbitrap at a resolution of 120,000 at m/z 400. The 20 most intense peaks from survey scans were selected for further fragmentation in the Linear Ion Trap with an isolation window of 2.0 Da and were fragmented by CID with normalized collision energy of 35%. (TOP20CID method) Unassigned and single charged states were excluded from fragmentation. The Ion Target Value for the survey scans (in the Orbitrap) and the MS2 mode (in the Linear Ion Trap) were set to 1E6 and 5E3 respectively and the maximum injection time was set to 100 ms for both scan modes. Dynamic exclusion was set to 20 s after one repeat count with mass width at ±10 ppm. […]

[2] = system: HeLa cell extract preys; details: for Ratio: fold enrichment of prey; for Difference: log2 enrichment of prey
Method: as §1, §2, §3, §4

[3] = system: Jurkat cell extract preys; details: for Difference log2: enrichment of prey
Method: as §1, §2, §3, §4

[4] = PDZ-AP-MS fold change of the PBM-protein prey, bait MBP-PDZ DLG1_1
[5] = PDZ-AP-MS fold change of the PBM-protein prey, bait MBP-PDZ DLG1_2
[6] = PDZ-AP-MS fold change of the PBM-protein prey, bait MBP-PDZ SCRIB_1
[7] = PDZ-AP-MS fold change of the PBM-protein prey, bait MBP-PDZ SCRIB_2
[8] = PDZ-AP-MS fold change of the PBM-protein prey, bait MBP-PDZ SNX27
[9] = PDZ-AP-MS fold change of the PBM-protein prey, bait MBP-PDZ TX1BP3

B1: TAX1BP3 (protein, UniProt O14907 2-124, looked up)
Tax1-binding protein 3: SYIPGQPVTAVVQRVEIHKLRQGENLILGFSIGGGIDQDPSQNPFSEDKTDKGIYVTRVSEGGPAEIAGLQIGDKIMQVNGWDMTMVTHDQARKRLTKRSEEVVRLLVTRQSLQKAVQQSMLS
- Difference log2 [1]: 10.0746
- Ratio TX1BP3/MBP [1]: 1078.31
- Ratio ([2]; bait TX1BP3 PDZ vs MBP control): 86.5427
- Difference ([2]; bait TX1BP3 PDZ vs MBP control): 6.435
- Difference log2 ([3]; bait DLG1_1 PDZ vs MBP): 4.078
- Ratio DLG1_1 / MBP ([3]; bait DLG1_1 PDZ, fold change of prey): 16.8941
- Difference log2 ([3]; bait TX1BP3 PDZ vs MBP): 12.2171
- Ratio TX1BP3/MBP ([3]; bait TX1BP3 PDZ, fold change of prey): 4761.06

B2: TX1BP3 (protein, UniProt O14907 2-124, looked up)
Tax1-binding protein 3: B1 Tax1-binding protein 3
- Difference log2 [1]: 9.132
- Ratio TX1BP3/MBP [1]: 561.056

B3: ALDH9A1 (protein, UniProt P49189 1-494, looked up)
4-trimethylaminobutyraldehyde …: MSTGTFVVSQPLNYRGGARVEPADASGTEKAFEPATGRVIATFTCSGEKEVNLAVQNAKAAFKIWSQKSGMERCRILLEAARIIREREDEIATMECINNGKSIFEARLDIDISWQCLEYYAGLAASMAGEHIQLPGGSFGYTRREPLGVCVGIGAWNYPFQIASWKSAPALACGNAMVFKPSPFTPVSALLLAEIYSEAGVPPGLFNVVQGGAATGQFLCQHPDVAKVSFTGSVPTGMKIMEMSAKGIKPVTLELGGKSPLIIFSDCDMNNAVKGALMANFLTQGQVCCNGTRVFVQKEILDKFTEEVVKQTQRIKIGDPLLEDTRMGPLINRPHLERVLGFVKVAKEQGAKVLCGGDIYVPEDPKLKDGYYMRPCVLTNCRDDMTCVKEEIFGPVMSILSFDTEAEVLERANDTTFGLAAGVFTRDIQRAHRVVAELQAGTCFINNYNVSPVELPFGGYKKSGFGRENGRVTIEYYSQLKTVCVEMGDVESAF
- Fold changes, HaCat, DLG1_1 [1, 4]: 0.7692
- Fold changes, HaCat, DLG1_2 [1, 5]: 1.032
- Fold changes, HaCat, SCRIB_1 [1, 6]: 3.899
- Fold changes, HaCat, SCRIB_2 [1, 7]: 0.6746
- Fold changes, HaCat, SNX27 [1, 8]: 57.4815
- Fold changes, HaCat, TX1BP3 [1, 9]: 0.8437
- Fold changes, HeLa, DLG1_1 [2, 4]: 0.965
- Fold changes, HeLa, DLG1_2 [2, 5]: 0.6499
- Fold changes, HeLa, SCRIB_1 [2, 6]: 1.5654
- Fold changes, HeLa, SCRIB_2 [2, 7]: 0.9621
- Fold changes, HeLa, SNX27 [2, 8]: 23.2299
- Fold changes, HeLa, TX1BP3 [2, 9]: 0.8902
- Fold changes, Jurkat, DLG1_1 [3, 4]: 0.4996
- Fold changes, Jurkat, DLG1_2 [3, 5]: 10.9748
- Fold changes, Jurkat, SCRIB_1 [3, 6]: 0.5795
- Fold changes, Jurkat, SCRIB_2 [3, 7]: 0.6928
- Fold changes, Jurkat, SNX27 [3, 8]: 23.7963
- Fold changes, Jurkat, TX1BP3 [3, 9]: 0.5031

B4: CAPRIN1 (protein, UniProt Q14444 2-709, looked up)
Caprin-1: PSATSHSGSGSKSSGPPPPSGSSGSEAAAGAGAAAPASQHPATGTGAVQTEAMKQILGVIDKKLRNLEKKKGKLDDYQERMNKGERLNQDQLDAVSKYQEVTNNLEFAKELQRSFMALSQDIQKTIKKTARREQLMREEAEQKRLKTVLELQYVLDKLGDDEVRTDLKQGLNGVPILSEEELSLLDEFYKLVDPERDMSLRLNEQYEHASIHLWDLLEGKEKPVCGTTYKVLKEIVERVFQSNYFDSTHNHQNGLCEEEEAASAPAVEDQVPEAEPEPAEEYTEQSEVESTEYVNRQFMAETQFTSGEKEQVDEWTVETVEVVNSLQQQPQAASPSVPEPHSLTPVAQADPLVRRQRVQDLMAQMQGPYNFIQDSMLDFENQTLDPAIVSAQPMNPTQNMDMPQLVCPPVHSESRLAQPNQVPVQPEATQVPLVSSTSEGYTASQPLYQPSHATEQRPQKEPIDQIQATISLNTDQTTASSSLPAASQPQVFQAGTSKPLHSSGINVNAAPFQSMQTVFNMNAPVPPVNEPETLKQQNQYQASYNQSFSSQPHQVEQTELQQEQLQTVVGTYHGSPDQSHQVTGNHQQPPQQNTGFPRSNQPYYNSRGVSRGGSRGARGLMNGYRGPANGFRGGYDGYRPSFSNTPNSGYTQSQFSAPRDYSGYQRDGYQQNFKRGSGQSGPRGAPRGRGGPPRPNRGMPQMNTQQVN
- Ratio ([2]; bait DLG1_1 PDZ vs MBP control): 30.4665
- Difference ([2]; bait DLG1_1 PDZ vs MBP control): 4.929
